Publication doi:10.1101/2022.07.12.499507 (bioRxiv, 2022)

Biological target: T1, Eaf2 (Saccharomyces cerevisiae, UniProt P53201 1-476)
T1 sequence: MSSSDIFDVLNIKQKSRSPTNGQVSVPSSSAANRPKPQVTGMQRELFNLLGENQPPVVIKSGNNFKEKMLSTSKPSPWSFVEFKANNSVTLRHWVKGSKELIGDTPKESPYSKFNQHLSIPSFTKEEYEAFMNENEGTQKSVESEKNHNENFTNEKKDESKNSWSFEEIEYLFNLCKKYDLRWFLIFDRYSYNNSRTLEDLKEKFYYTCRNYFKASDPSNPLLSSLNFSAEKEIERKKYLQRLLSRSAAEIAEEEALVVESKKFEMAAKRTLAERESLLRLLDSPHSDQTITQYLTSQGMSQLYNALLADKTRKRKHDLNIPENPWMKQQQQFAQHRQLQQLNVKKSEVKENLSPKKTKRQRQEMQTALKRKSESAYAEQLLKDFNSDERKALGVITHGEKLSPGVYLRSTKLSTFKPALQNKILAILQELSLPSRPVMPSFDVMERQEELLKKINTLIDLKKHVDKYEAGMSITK
Test: cross-linking

binding result: binds
B1: Yaf9 (natural protein)
chain: MAPTISKRIKTLSVSRPIIYGNTAKKMGSVKPPNAPAEHTHLWTIFVRGPQNEDISYFIKKVVFKLHDTYPNPVRSIEAPPFELTETGWGEFDINIKVYFVEEANEKVLNFYHRLRLHPYANPVPNSDNGNEQNTTDHNSKDAEVSSVYFDEIVFNEPNEEFFKILMSRPGNLLPSNKTDDCVYSKQLEQEEIDRIEIGIEKVDKEIDELKQKLENLVKQEAINGS
